Literature values in article PMC4705221.
Where two headings read alike, the source gives them in different places.

Legend:
[1] = target: MK2 (Homo sapiens) (UniProt P49137)
[2] = target: MK2 (Homo sapiens) (UniProt P49137); remark: listed apart in the source

Chain of UniProt P49137 (P49137 whole entry): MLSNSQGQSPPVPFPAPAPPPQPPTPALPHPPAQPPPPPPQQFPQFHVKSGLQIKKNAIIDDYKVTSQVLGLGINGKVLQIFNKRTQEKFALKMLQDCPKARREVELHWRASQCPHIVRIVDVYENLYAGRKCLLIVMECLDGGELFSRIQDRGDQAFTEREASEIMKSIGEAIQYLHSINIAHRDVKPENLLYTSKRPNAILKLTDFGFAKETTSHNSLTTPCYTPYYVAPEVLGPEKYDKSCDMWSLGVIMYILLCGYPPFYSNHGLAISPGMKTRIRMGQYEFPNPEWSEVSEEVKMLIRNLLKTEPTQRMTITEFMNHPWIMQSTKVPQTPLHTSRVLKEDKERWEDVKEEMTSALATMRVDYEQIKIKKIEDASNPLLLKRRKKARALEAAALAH

p38α (from UniProt Q16539)
Kd [1]: 60 nM | Kd [2]: 2.5 nM
